Test results taken from patent US20140120095A1 (Boehringer Ingelheim, published 2014).

T1: cynomolgus DLL4 expressed on CHO cells (cynomolgus, UniProt Q9NR61 27-685 (human entry))
T1 construct: also called cDLL4; CHO-cDLL4
T1 chain: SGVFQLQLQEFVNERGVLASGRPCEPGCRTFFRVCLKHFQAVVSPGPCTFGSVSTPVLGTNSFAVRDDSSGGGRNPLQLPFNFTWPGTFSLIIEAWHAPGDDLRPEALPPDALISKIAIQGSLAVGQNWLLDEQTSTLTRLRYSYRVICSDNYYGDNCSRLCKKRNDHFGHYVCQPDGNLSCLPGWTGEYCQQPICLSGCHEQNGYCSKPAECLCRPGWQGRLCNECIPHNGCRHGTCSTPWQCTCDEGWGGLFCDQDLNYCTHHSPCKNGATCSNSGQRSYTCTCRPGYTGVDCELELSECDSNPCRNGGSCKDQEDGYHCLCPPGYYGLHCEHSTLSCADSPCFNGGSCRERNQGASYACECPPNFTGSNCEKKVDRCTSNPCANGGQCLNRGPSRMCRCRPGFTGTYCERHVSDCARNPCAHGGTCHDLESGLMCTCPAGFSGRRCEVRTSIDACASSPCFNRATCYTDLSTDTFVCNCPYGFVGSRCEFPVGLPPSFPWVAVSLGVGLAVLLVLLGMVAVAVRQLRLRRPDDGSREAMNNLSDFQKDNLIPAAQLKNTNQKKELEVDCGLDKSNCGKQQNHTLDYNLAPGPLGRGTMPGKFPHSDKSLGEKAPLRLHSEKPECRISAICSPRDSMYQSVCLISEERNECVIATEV


Experiments:
[1] = molecular target: T2, human DLL4 expressed on cells (CHO-hDLL4; HEK293-hDLL4) (human, UniProt Q9NR61 27-685); assay: cell-based or functional assay
[2] = molecular target: T1, cynomolgus DLL4 expressed on CHO cells; assay: FACS on CHO-cDLL4 cells
[3] = molecular target: T2, human DLL4 expressed on cells …; assay: competition FMAT, labelled hNotch1-Fc on CHO-hDLL4 cells
[4] = molecular target: T2, human DLL4 expressed on cells …; assay: FACS; summary table, column taken as hDLL4
human Jagged-1 (Alexis) = molecular target: T3, human Jagged-1 (Alexis) (human, UniProt P78504 34-1067, limits assumed); assay: binding ELISA on coated human Jagged-1 (Example 5.8, Example 7), OD 405 nm
T3 construct: also called hJag-1; hJAG1

[5] = molecular target: T4, recombinant human DLL4 (C-terminally His-tagged extracellular domain, R&D Systems) (human, UniProt Q9NR61 25-522, biotinylated in the competition ELISA); assay: competition ELISA hDLL4/hNotch1-Fc; summary table
T4 construct: also called rhDLL4; hDLL4

[6] = molecular target: T4, recombinant human DLL4 (C-terminally …); assay: SPR (Biacore); summary table
[7] = molecular target: T5, recombinant mouse DLL4 (C-terminally His-tagged extracellular domain, R&D Systems) (mouse, UniProt Q9JI71 27-532); assay: SPR (Biacore); summary table
T5 construct: extracellular domain; also called rmDLL4; mDLL4
T5 sequence (Q9JI71 27-532): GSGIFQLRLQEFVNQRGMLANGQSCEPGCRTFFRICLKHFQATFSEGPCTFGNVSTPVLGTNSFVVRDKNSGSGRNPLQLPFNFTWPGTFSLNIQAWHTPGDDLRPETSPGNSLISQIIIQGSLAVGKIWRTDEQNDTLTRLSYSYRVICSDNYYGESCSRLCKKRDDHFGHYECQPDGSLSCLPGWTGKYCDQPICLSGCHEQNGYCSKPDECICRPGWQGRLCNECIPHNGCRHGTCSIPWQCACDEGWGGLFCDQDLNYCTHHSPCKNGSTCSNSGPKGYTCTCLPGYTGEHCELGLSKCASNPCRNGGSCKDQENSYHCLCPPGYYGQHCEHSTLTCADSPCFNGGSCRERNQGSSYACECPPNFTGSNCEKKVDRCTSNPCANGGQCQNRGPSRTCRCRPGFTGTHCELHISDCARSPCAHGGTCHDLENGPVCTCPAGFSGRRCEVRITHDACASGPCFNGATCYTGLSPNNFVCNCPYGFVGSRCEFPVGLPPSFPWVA

[8] = molecular target: T6, mouse DLL4 expressed on CHO cells (mouse, UniProt Q9JI71 27-686); assay: competition FMAT CHO-mDLL4; summary table
T6 construct: whole, on cells; also called mDLL4; CHO-mDLL4
T6 sequence (Q9JI71 27-686): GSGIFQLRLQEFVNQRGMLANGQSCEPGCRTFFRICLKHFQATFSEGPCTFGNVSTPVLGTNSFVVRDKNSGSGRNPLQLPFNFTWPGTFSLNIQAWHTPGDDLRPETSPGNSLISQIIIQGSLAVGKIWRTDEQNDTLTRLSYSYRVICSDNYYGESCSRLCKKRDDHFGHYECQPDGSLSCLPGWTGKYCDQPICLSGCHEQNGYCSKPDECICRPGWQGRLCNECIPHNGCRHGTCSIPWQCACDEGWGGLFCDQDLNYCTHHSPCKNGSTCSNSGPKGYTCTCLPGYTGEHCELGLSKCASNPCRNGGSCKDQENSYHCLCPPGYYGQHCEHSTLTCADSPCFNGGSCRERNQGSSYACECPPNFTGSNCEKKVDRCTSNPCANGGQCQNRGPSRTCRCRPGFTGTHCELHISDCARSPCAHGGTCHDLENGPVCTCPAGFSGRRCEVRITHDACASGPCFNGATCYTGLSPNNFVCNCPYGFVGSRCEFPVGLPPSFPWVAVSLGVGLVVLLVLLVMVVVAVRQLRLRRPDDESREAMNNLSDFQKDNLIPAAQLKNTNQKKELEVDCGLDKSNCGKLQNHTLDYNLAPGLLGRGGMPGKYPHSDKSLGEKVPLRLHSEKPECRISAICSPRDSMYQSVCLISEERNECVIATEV

[9] = molecular target: T4, recombinant human DLL4 (C-terminally …); assay: competition ELISA, biotinylated hDLL4 to coated hNotch1-Fc
[10] = molecular target: T5, recombinant mouse DLL4 (C-terminally …); assay: SPR (Biacore), rmDLL4
[11] = molecular target: T4, recombinant human DLL4 (C-terminally …); assay: SPR (Biacore), rhDLL4
Experimental: Kinetic analysis to determine the affinity of the DII4-VHH interaction is performed by Surface Plasmon Resonance (SPR) on a Biacore T100 instrument. […] Purified VHHs or Fab fragment are injected for 2 minutes at different concentrations (between 10 and 300 nM) and allowed to dissociate for 20 min at a flow rate of 45 μl/min. Between sample injections, the surfaces are regenerated with 10 mM glycine pH1.5 and 100 mM HCl. HBS-N (Hepes buffer pH7.4) is used as running buffer. If possible, data are evaluated by fitting a 1:1 interaction model (Langmuir binding) onto the binding curves. The affinity constant KD is calculated from resulting association and dissociation rate constants (kₐ) and […].

[12] = molecular target: T2, human DLL4 expressed on cells …; assay: FACS on CHO-hDLL4 cells
[13] = molecular target: T6, mouse DLL4 expressed on CHO cells; assay: competition FMAT, labelled hNotch1-Fc on CHO-mDLL4 cells
[14] = molecular target: T1, cynomolgus DLL4 expressed on CHO cells; assay: FACS; summary table, column taken as cDLL4
[15] = molecular target: T2, human DLL4 expressed on cells …; assay: competition FMAT CHO-hDLL4; summary table
[16] = molecular target: T6, mouse DLL4 expressed on CHO cells; assay: FACS on CHO-mDLL4 cells
[17] = molecular target: T6, mouse DLL4 expressed on CHO cells; assay: FACS; summary table, column taken as mDLL4

Binder | IC50, DLL4-mediated reporter assay [1] [nM] | EC50 [2] [nM] | IC50 [3] [nM] | EC50 [4] [nM] | IC50 [5] [nM] | Kd [6] [nM] | Kd [7] [nM] | IC50 [8] [nM] | IC50 [9] [nM] | Kd [10] [nM] | koff [10] [s⁻¹] | kon [10] [M⁻¹ s⁻¹] | Kd [11] [nM] | koff [11] [s⁻¹] | kon [11] [M⁻¹ s⁻¹] | EC50 [12] [nM] | IC50 [13] [nM] | EC50 [14] [nM] | IC50 [15] [nM] | EC50 [16] [nM] | further results
DLLBII101G08 (VHH, not shown: small tags and cut ends, parent VHH; also called 101G08 (wt); 101G8) VHH: EVQLVESGGGLVQAGGSLRLSCAASGRTFSSYAMAWFRQAPGKEREFVAAIRWSGGTAYYADSVQGRFTISRDNAKNTVYLQMNSLKPEDTAVYYCANRAADTRLGPYEYDYWGQGTQVTVSS | 1940 | 11.2 | 69.3 | 17.5 | 10 | 48 | 60 | 140 | 10 | 60 | 0.0056 | 94000 | 48 | 0.0023 | 48000 | 17.5 | 140 | 11.2 | 69.3 |  | binding result (human Jagged-1 (Alexis)): no binding (tested: log[M] -6.1 (about 8e-7 M))
DLLBII129B05 (VHH, not shown: small tags and cut ends) VHH: EVQLVESGGGLVQAGGSLRLSCAASGRTFSSYAMAWYRQAPGKEREYVAAIRWSGGTAYYADSVQGRFTISRDNAKNTVYLQMNSLKPEDTAVYYCANRAPDTRLAPYEYDHWGQGTQVTVSS | 60 | 3.9 | 7.4 | 9.7 | 0.9 | 0.3 | 1.1 | 14.4 | 0.9 | 1.1 | 0.00031 | 270000 | 0.3 | 7.9e-05 | 230000 | 9.7 | 14.4 | 3.9 | 7.4 | 3.9 | binding result (human Jagged-1 (Alexis)): no binding (tested: log[M] -6.1 (about 8e-7 M)); EC50 [17]: 3.9 nM
DLLBII129D08 (VHH, not shown: small tags and cut ends) VHH: EVQLVESGGGLVQAGGSLRLSCAASGRTFSSYAMAWYRQAPGKEREYVAAIRWSGGTAYYADSVQGRFTISRDNAKNTVYLQMNSLKPEDTAVYYCANRAPDTRLEPYLYDYWGQGTQVTVSS | 77 | 3.8 | 7.8 | 9.6 | 1.2 | 0.4 | 0.8 | 11 | 1.2 | 0.8 | 0.0002 | 270000 | 0.4 | 6.4e-05 | 180000 | 9.6 | 11 | 3.8 | 7.8 | 3.7 | binding result (human Jagged-1 (Alexis)): no binding (tested: log[M] -6.1 (about 8e-7 M)); EC50 [17]: 3.7 nM
DLLBII015 (VHH, not shown: small tags and cut ends) VHH: EVQLVESGGGLVQPGGSLRLSCAASGFTIGSYDMSWVRRSPGKGPEWVSAINSGGGSTYYADYVKGRFTISRDNAKNTLYLQMNSLKPEDTAVYYCAADRYIWARQGEYWGAYAYDYWGQGTQVTVSS | 18 | 5.1 | 5.7 | 14.8 | 0.9 | 1 | 4.3 | 21.2 | 0.9 | 4.3 | 0.0015 | 350000 | 1 | 0.00047 | 450000 | 14.8 | 21.2 | 5.1 | 5.7 | 7 | EC50 [17]: 7 nM
DLLBII133A09 (VHH, not shown: small tags and cut ends) VHH: EVQLVESGGGLVQPGGSLRLSCAASGFTFGSYDMSWVRRSPGKGPEWVSAINSGGGSTYYADYVKGRFTISRDNAKNTLYLQMNSLKPEDTAVYYCAADRYIWARQGEYWGAYAYDYWGQGTQVTVSS | 87 | 2.3 | 6.6 | 7.2 | 1.5 | 2.1 | 7.8 | 18.6 | 1.5 | 7.8 | 0.0027 | 350000 | 2.1 | 0.0009 | 440000 | 7.2 | 18.6 | 2.3 | 6.6 | 1.7 | EC50 [17]: 1.7 nM
DLLBII133G05 (VHH, not shown: small tags and cut ends) VHH: EVQLVESGGGLVQPGGSLRLSCAASGFTFGSYDMSWVRRSPGKGPEWVSAINSGGGSTYYTDYVKGRFTISRDNAKNTLYLQMNSLKPEDTAVYYCAADRYIWARQGEYWGAYAYDYWGQGTQVTVSS | 104 | 2.7 | 5.9 | 8.5 | 2 | 0.8 | 3.4 | 12 | 2 | 3.4 | 0.0016 | 470000 | 0.8 | 0.00047 | 590000 | 8.5 | 12 | 2.7 | 5.9 | 2.8 | EC50 [17]: 2.8 nM
DLLBII136C07 (VHH, not shown: small tags and cut ends) VHH: EVQLVESGGGLVQPGGSLRLSCAASGFTFGSYDMSWVRRSPGKGPEWVSSINSGGGSTYYADYVKGRFTISRDNAKNTLYLQMNSLKPEDTAVYYCAADRYIWARQGEYWGAYEYDYWGQGTQVTVSS | 226 | 3.5 | 8 | 10.9 | 1.4 | 0.6 | 2.6 | 31.2 | 1.4 | 2.6 | 0.0013 | 500000 | 0.6 | 0.00039 | 620000 | 10.9 | 31.2 | 3.5 | 8 | 8.3 | EC50 [17]: 8.3 nM
